Results on 5 molecules are retold here after publication PMC7081346, “Identification and characterization of N9-methyltransferase involved in converting caffeine into non-stimulatory theacrine in tea” (Nature Communications, 2020).

Series [1] concerns the target T1, CkTbS (Camellia sinensis, UniProt A0A6C0WX00, T241I).
T1 construct: gene TBS; full-length, recombinant from E. coli BL21(DE3); N-terminal His6-SUMO tag cleaved with ULP1
In words: in vitro methylation assay, HPLC. The note with it: SAM as methyl donor. The class given is biochemical.

For series [2], the target named is T2, CkTbS (Camellia sinensis, UniProt A0A6C0WX00, S270C).
T2 construct: gene TBS; full-length, recombinant from E. coli BL21(DE3); N-terminal His6-SUMO tag cleaved with ULP1
In words: in vitro methylation assay, HPLC. The class given is biochemical. Conditions: SAM as methyl donor; printed as C270S, but CkTbS residue 270 is Ser.

The target in series [3] is T3, CkTbS (Camellia sinensis, UniProt A0A6C0WX00, H226R/T241I/S270C).
T3 construct: gene TBS; full-length, recombinant from E. coli BL21(DE3); N-terminal His6-SUMO tag cleaved with ULP1
Briefly: in vitro methylation assay, HPLC. Conditions: SAM as methyl donor; triple mutant, composition from the three variable residues. Type of series: biochemical.

Series [4] concerns the molecule itself. In words: crystal structure; CkTcS (eight N-terminal residues truncated) mixed with 2 mM SAH and 5 mM 1,3,7-trimethyluric acid; hanging drop, 4 °C, 0.1 M HEPES (pH 7.5), 1 M sodium citrate; 3.14 Å; homodimer in the crystal lattice.
Substrate in the series “purified protein”: C[S+](CC[C@H](N)C(=O)O)C[C@H]1O[C@@H](n2cnc3c(N)ncnc32)[C@H](O)[C@@H]1O
Briefly: purified protein. The note with it: 50 μM 1,3,7-trimethyluric acid, 200 μM MgCl2, 100 mM Tris-HCl pH 7.0, 27 °C.

Substrate in series [5]: Cn1c(=O)c2c([nH]c(=O)n2C)n(C)c1=O
In words: theacrine formation by HPLC-MS. The class given is biochemical, Camellia sinensis. The note with it: 1.5 mM SAM, 200 μM MgCl2, 100 mM Tris-HCl pH 7.0, 27 °C.

Substrate in series [6]: Cn1cnc2[nH]c(=O)[nH]c(=O)c21
Briefly: theobromine formation by HPLC-MS. The note with it: 1.5 mM SAM, 200 μM MgCl2, 100 mM Tris-HCl pH 7.0, 27 °C. Type of series: biochemical, Camellia sinensis.

T2 sequence (A0A6C0WX00 whole entry S270C): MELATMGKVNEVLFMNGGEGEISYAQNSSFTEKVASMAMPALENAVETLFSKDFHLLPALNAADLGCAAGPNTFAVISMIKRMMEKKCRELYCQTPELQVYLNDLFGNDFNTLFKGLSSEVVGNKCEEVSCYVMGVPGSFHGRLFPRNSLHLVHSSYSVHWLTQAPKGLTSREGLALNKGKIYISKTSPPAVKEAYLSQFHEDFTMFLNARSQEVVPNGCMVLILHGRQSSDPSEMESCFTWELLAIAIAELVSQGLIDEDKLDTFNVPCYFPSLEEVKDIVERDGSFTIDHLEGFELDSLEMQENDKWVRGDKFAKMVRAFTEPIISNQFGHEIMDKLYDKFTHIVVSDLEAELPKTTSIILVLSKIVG
T3 sequence (A0A6C0WX00 whole entry H226R/T241I/S270C): as the sequence (A0A6C0WX00 whole entry S270C) above, with H226R, T241I counted along it
T1 sequence (A0A6C0WX00 whole entry T241I): as the sequence (A0A6C0WX00 whole entry S270C) above, with T241I, C270S counted along it

As to `Cn1c(=O)c2c([nH]c(=O)n2C)n(C)c1=O` [compound 5, 1,3,7-trimethyluric acid], the “in vitro methylation assay, HPLC” value was “Single mutation of T241I or C270S on CkTbS led to a moderate increase” on CkTbS [1]; “Single mutation of T241I or C270S on CkTbS led to a moderate increase” on CkTbS [2]; “the double and triple mutations further increased the N-methyltransferase activity” at CkTbS [3].

B1: theacrine synthase CkTcS (N9-methyltransferase), N-terminal eight residues truncated (enzyme, Camellia assamica var. kucha (Kucha), UniProt A0A6C0WW36 9-370, looked up)
chain: VKEVLFMNTGEGESSYVQNSSFTEKVASMAMPALENAVETLFSKDFHLFQAINAADLGCATGPNTFAVISTIKRMMEKKCRELNCQTLELQVYMNDLFGNDFNTLFKGLSSKVIGNKCEEVSCYVMGVPGSFHGRLFPRNSLHLVHSSYSVHWLTQAPKGLTSREGLALNKGRIYISKTSPPVVREAYLSQFHEDFTMFLNARSQEVVPNGCMVLILRGRQSSDPSDMQSCFIWELLAIAIAELVSQGLIDEDKLDTFNIPCYFPSLEEVKDIVERDGSFTIDHMEGFELDSLQMQENDKWVRGEKFAKIVRAFTEPIISNQFGHEIMDKLYDKFTHIVVSDLEAKLPKTTSIILVLSKIVG
notes: CkTcS, theacrine synthase (N9-methyltransferase) of Camellia assamica var. kucha (Kucha); for crystallization eight residues on the N-terminal were truncated; source: E. coli BL21(DE3), purified (Nickel column, ion-exchange, size-exclusion); not shown: His6, N-terminal, cleaved; SUMO, N-terminal, cleaved
For orientation: stoichiometry N means a count of units in the complex or per binding partner. Regarding B1, in series [4], the “stoichiometry N” value came out at 2.

B2: CkTcS (Camellia sinensis var. assamica) (protein)
chain: MELATRGKVKEVLFMNTGEGESSYVQNSSFTEKVASMAMPALENAVETLFSKDFHLFQAINAADLGCATGPNTFAVISTIKRMMEKKCRELNCQTLELQVYMNDLFGNDFNTLFKGLSSKVIGNKCEEVSCYVMGVPGSFHGRLFPRNSLHLVHSSYSVHWLTQAPKGLTSREGLALNKGRIYISKTSPPVVREAYLSQFHEDFTMFLNARSQEVVPNGCMVLILRGRQSSDPSDMQSCFIWELLAIAIAELVSQGLIDEDKLDTFNIPCYFPSLEEVKDIVERDGSFTIDHMEGFELDSLQMQENDKWVRGEKFAKIVRAFTEPIISNQFGHEIMDKLYDKFTHIVVSDLEAKLPKTTSIILVLSKIVG
notes: full-length, recombinant from E. coli BL21(DE3); N-terminal His6-SUMO tag cleaved with ULP1; homodimer
As usually defined, the Km is the substrate concentration at which the rate is half of its maximum. Take B2: the Km in the series “purified protein” is 109.50 µM; in series [5], 4.68 ± 0.72 µM; in series [6] it was 226.20 ± 33.95 µM. For the same molecule, the kcat in series [5] is on record as 11.42 ± 0.37 ×10^-3 s^-1; in series [6], 6.07 ± 0.21 ×10^-3 s^-1.

B3: CkTbS (Camellia sinensis var. assamica) (protein)
chain: MELATMGKVNEVLFMNGGEGEISYAQNSSFTEKVASMAMPALENAVETLFSKDFHLLPALNAADLGCAAGPNTFAVISMIKRMMEKKCRELYCQTPELQVYLNDLFGNDFNTLFKGLSSEVVGNKCEEVSCYVMGVPGSFHGRLFPRNSLHLVHSSYSVHWLTQAPKGLTSREGLALNKGKIYISKTSPPAVKEAYLSQFHEDFTMFLNARSQEVVPNGCMVLILHGRQSSDPSEMESCFTWELLAIAIAELVSQGLIDEDKLDTFNVPSYFPSLEEVKDIVERDGSFTIDHLEGFELDSLEMQENDKWVRGDKFAKMVRAFTEPIISNQFGHEIMDKLYDKFTHIVVSDLEAELPKTTSIILVLSKIVG
notes: full-length, recombinant from E. coli BL21(DE3); N-terminal His6-SUMO tag cleaved with ULP1
As for B3, in series [5], the Km was determined as 162.20 ± 27.80 µM and the kcat is recorded as 0.18 ± 0.01 ×10^-3 s^-1.

B4: CkCS (Camellia sinensis var. assamica) (protein)
chain: MELATREKVNEVLFMNRGEGESSYAQNSSFTQQVASMAQPALENAVETLFSKDFHLQALNAADLGCAAGPNTFAVISTIKRMMEKKCRELNCQTLELQVYLNDLFGNDFNTLFKGLSSEVIGNKCEEVPCYVMGVPGSFHGRLFPRNSLHLVYSSYSVHWLTQAPKGLTSREGLALNKGKIYISKTSPPVVREAYLSQFHEDFTMFLNYRSQEMVPNGCMVLILRGRQCFDPSDMQSCFTWELLALAIAELVSQGLIDEDKLDTFNIPSYFASLEEVKDIVERDGSFTIDHIEGFDLDSVEMQENDKWVRGEKFTKVVRAFSEPIISSQFGHEIMDKLYDKFTHIVVSDLEAKLPKTTSIILVLSKIVG
notes: as for B3
B4: in series [5], the Km was 71.49 ± 15.60 µM and the kcat was 0.12 ± 0.01 ×10^-3 s^-1.
